Data as given in patent US8663912B2, “Fluorogenic substrate for ADAMTS13” (Washington University, priority 2011, dated 2014).
* marks the point of attachment. X1 = CC1(C)C(/C=C/C2=C(Cl)C(=C/C=C3/N(CCCCCC(=O)*)c4ccc5cc(S(=O)(=O)O)ccc5c4C3(C)C)/CCC2)=[N+](CCCS(=O)(=O)[O-])c2ccc(N(CCCS(=O)(=O)O)CCCS(=O)(=O)O)cc21; X2 = CC(C)(C)c1cc(/C=C/C=C2\N(CCCS(=O)(=O)O)c3ccc(S(=O)(=O)O)cc3C2(C)CCCC(=O)CCN2C(=O)CC(*)C2=O)c2ccc(N(CCCS(=O)(=O)[O-])CCCS(=O)(=O)O)cc2[o+]1

Columns and labels:
[1] = Stability and pH dependence of fluorescence of FRETS-rVWF71; type: physicochemical
Procedure: In these experiments, DyLight 633 maleimide (Thermo Scientific, Waltham, Mass.) 1 mg/100 μL in dimethyl sulfoxide (DMSO) was added dropwise with stirring to peptide VWF71 (10 mg) in ≦2 mL of 100 mM sodium phosphate, pH 7.1, in the dark, and stirred overnight at room temperature. The product DyLight 633-rVWF71 was purified by HPLC on C18 using the TEAA/acetonitrile solvent system as described for the purification of VWF71. DyLight 633-rVWF71 was lyophilized and desalted on a small column of PD-10 in ≦2 mL of 100 mM sodium phosphate, pH 7.9. IRDye QC-1 N-hydroxysuccinimide ester 0.5 mg in 100 μL DMSO was added dropwise with stirring and the solution was stirred overnight at room temperature protected from light. The product FRETS-rVWF71 was purified by reverse phase HPLC, lyophilized, dissolved in ≦0.5 mL of deionized water and applied onto a column (7×230 mm) of Amberlite IR120 sodium form. FRETS-rVWF71 product was eluted with deionized water and lyophilized or concentrated by ultrafiltration to ≧250 μM. The concentration was verified by amino acid analysis (The Protein Chemistry Laboratory, Texas A&M University).

ADAMTS13 = target: T1, ADAMTS13 (Homo sapiens, UniProt Q76LX8); test: ADAMTS13 activity of plasma samples with FRETS-rVWF71 substrate; type: biochemical; parameters: from tissue; host or cells: human plasma or serum (pooled normal plasma, healthy donors, TTP patients); conditions: samples from patients with idiopathic TTP
T1 sequence (Q76LX8 75-1427): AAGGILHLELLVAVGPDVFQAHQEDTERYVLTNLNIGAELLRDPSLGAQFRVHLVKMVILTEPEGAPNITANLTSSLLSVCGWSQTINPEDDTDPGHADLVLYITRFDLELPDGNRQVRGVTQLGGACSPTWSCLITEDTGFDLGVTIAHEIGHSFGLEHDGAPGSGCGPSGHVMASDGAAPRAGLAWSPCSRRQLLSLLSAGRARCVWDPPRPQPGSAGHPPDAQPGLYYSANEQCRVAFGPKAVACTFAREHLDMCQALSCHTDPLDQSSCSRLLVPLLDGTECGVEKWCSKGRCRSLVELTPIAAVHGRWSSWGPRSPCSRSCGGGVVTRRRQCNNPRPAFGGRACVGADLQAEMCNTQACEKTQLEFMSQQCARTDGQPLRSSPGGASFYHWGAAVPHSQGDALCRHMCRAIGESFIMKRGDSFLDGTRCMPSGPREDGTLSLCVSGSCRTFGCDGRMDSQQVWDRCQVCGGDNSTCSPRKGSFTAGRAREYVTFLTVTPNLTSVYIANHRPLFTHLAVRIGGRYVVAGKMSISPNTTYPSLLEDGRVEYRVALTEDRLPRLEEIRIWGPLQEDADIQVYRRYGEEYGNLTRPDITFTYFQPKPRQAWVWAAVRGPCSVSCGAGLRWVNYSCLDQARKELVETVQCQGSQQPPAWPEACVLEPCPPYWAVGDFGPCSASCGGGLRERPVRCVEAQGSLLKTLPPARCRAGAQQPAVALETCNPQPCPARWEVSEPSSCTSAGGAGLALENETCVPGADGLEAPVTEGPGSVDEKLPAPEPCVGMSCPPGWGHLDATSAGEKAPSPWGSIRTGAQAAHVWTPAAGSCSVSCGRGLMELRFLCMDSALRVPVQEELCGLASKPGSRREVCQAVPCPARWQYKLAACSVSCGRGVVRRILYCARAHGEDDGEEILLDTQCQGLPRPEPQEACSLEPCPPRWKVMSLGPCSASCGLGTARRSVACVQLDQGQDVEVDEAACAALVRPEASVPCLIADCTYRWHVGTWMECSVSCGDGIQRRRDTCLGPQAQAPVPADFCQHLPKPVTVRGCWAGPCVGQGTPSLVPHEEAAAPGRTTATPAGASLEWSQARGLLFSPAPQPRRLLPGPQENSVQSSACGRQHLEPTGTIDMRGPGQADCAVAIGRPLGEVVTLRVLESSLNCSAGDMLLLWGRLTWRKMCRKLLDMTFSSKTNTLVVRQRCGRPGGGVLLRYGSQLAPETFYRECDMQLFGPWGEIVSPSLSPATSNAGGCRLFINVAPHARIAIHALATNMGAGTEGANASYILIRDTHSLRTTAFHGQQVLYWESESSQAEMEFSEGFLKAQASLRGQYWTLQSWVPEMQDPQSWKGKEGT
Procedure: Assays were performed at 30° C. Samples (100 μL) of plasma or serum, diluted as necessary in assay buffer, were pipetted in duplicate in 96 well white microplates (Optiplate-96, PerkinElmer, Waltham, Mass.). Reaction was initiated by addition of 100 μL substrate in assay buffer. Cleavage of FRETS-rVWF71 was detected as an increase in fluorescence compared to control reactions without added enzyme at 2 min intervals using a Victor^2V Multilabel Counter (PerkinElmer, Waltham, Mass.) or Synergy H1 Hybrid Multi-Mode Microplate Reader (Biotek, Winooski, Vt.) equipped with 635±10 nm excitation and 660±10 nm emission filters. Initial velocities were determined by fitting progress curves to the polynomial ΔF=A+Bt+Ct^2, where ΔF is the change in fluorescence, t is time, A is the y-intercept, B is the initial velocity (slope), and the term Ct^2 accounts for any decline in velocity due to substrate consumption or photobleaching.
In these experiments, frozen Li^+-heparin plasma samples were obtained from 100 healthy controls (Biological Specialty Corp., Colmar, Pa.) deidentified except for demographic information on gender, age, and ethnicity. Pooled normal Li^+-heparin plasma (PNP) for assay standardization was prepared from at least 35 donors. […] activity of randomly selected controls samples was determined by the FRETS-VWF73 method. […]

X1-GQAPNLVYMVTGC(X2)PASDEIRRLPGDIQVVPIGVGPNANVQELERIGWPNAPILIQDFETLPREAPDLVLQR [FRETS-rVWF71]
variation of fluorescence emission at 660 nm with pH ([1]; excitation 635 nm, uncleaved and fully cleaved substrate, between pH 5 and pH 10): < 7%
stability of final product ([1]; sodium salt): stable
stability on storage ([1]; working stocks at −20° C. thawed and refrozen repeatedly over several months): without any change in stability or chemical properties
sensitivity of ADAMTS13 activity assay relative to FRETS-VWF73 (ADAMTS13): 20 fold
